Experimental findings from article PMC10728118, “Mutant GGGGCC RNA prevents YY1 from binding to Fuzzy promoter which stimulates Wnt/β-catenin pathway in C9ALS/FTD” are described below.

Series [1] addresses His-YY1 ZF1+ZF2+ZF3 del382-end (UniProt P25490). Nature of the series: EMSA. Conditions: EMSA: 10 mM HEPES-KOH, 12 mM Tris-HCl, 50 mM NaCl, 50 mM KCl, 5 mM MgCl2, 100 uM ZnCl2, 0.01% NP-40, 5% glycerol, 2.5 mM DTT, pH 7.4, 25 C, 2.5 nM probe; FP: …. (In general: A gel shift assay detects complexes by their altered migration in electrophoresis.)
The target of series [2] is His-YY1 ZF1+ZF2 del352-end (UniProt P25490). Nature of the series: EMSA. Conditions: EMSA: 10 mM HEPES-KOH, 12 mM Tris-HCl, 50 mM NaCl, 50 mM KCl, 5 mM MgCl2, 100 uM ZnCl2, 0.01% NP-40, 5% glycerol, 2.5 mM DTT, pH 7.4, 25 C, 2.5 nM probe; FP: ….
His-YY1 ZF1+ZF2 del352-end, sequence (P25490 1-351): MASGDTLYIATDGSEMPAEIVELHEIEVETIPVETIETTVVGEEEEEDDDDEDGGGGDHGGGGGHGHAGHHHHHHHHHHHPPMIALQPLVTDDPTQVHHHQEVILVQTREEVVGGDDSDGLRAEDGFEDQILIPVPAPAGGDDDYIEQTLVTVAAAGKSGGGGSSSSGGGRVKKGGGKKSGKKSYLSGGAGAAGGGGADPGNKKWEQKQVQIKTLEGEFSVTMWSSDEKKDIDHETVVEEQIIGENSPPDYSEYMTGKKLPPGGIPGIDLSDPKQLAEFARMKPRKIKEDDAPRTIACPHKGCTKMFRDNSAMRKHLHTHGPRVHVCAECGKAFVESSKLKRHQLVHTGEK
Series [3] concerns the target T1, His-YY1 full-length (UniProt P25490 1-414). Nature of the series: EMSA; EMSA: 10 mM HEPES-KOH, 12 mM Tris-HCl, 50 mM NaCl, 50 mM KCl, 5 mM MgCl2, 100 uM ZnCl2, 0.01% NP-40, 5% glycerol, 2.5 mM DTT, pH 7.4, 25 C, 2.5 nM probe; FP: 50 mM Tris-HCl, 100 mM KCl, 2.5 mM MgCl2, 100 uM ZnCl2, pH 7.4, 25 C. Conditions: protein: recombinant, tags: His, label: Cy5.
In series [4] the target is T1, His-YY1 full-length. As to the kind of experiment: fluorescence polarisation; EMSA: 10 mM HEPES-KOH, 12 mM Tris-HCl, 50 mM NaCl, 50 mM KCl, 5 mM MgCl2, 100 uM ZnCl2, 0.01% NP-40, 5% glycerol, 2.5 mM DTT, pH 7.4, 25 C, 2.5 nM probe; FP: 50 mM Tris-HCl, 100 mM KCl, 2.5 mM MgCl2, 100 uM ZnCl2, pH 7.4, 25 C. Conditions: protein: recombinant; tags: His; label: FAM. (Fluorescence polarisation rises when a labelled molecule tumbles more slowly, as on binding a larger partner.)

The Kd is a measure of binding affinity in units of concentration.

T1 sequence (P25490 whole entry): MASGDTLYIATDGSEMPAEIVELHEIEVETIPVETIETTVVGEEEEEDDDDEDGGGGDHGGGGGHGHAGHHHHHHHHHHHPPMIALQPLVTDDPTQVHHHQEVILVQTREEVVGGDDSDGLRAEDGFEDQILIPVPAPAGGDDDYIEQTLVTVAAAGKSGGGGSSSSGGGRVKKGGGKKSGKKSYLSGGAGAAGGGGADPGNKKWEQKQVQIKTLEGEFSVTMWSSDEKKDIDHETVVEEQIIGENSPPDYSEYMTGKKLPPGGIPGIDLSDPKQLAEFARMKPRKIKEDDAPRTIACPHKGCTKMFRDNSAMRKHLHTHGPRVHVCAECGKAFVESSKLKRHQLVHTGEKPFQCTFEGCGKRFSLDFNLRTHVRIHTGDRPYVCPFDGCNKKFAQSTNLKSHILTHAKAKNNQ
His-YY1 ZF1+ZF2+ZF3 del382-end, sequence (P25490 1-381): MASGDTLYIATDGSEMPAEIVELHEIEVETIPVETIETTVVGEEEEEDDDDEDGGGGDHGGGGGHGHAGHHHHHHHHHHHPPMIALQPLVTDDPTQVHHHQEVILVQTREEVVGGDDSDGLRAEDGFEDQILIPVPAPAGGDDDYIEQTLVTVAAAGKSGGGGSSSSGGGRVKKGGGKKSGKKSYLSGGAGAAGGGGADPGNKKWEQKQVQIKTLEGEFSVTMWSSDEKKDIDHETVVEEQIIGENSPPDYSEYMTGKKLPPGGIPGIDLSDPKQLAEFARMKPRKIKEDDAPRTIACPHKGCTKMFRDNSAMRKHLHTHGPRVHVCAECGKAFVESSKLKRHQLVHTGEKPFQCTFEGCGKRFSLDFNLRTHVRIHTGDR

Regarding “GGGGCCGGGGCCGGGGCCGGGGCCGGGGCCGGGGCCGGGGCCGGGGCC [(GGGGCC)8 RNA]”, the Kd in series [1] was 59 nM; in series [2] it was 129 nM.

B1: FuzzyYY1-a DNA (dsDNA)
DNA 1: TGGGCAACATGGCGACACCC
DNA 2: GGGTGTCGCCATGTTGCCCA
Consider B1, for which the equilibrium dissociation constant (Kd) with His-YY1 full-length [3] (blunt) was 242 ± 21.7 nM.

B2: randomised GC-rich RNA (ssRNA)
RNA: GGGCGCGGCGCGCGGGCCGGGGCGGGCGCGCGGGCGGGGCGCGGCGCG
B2: in the series with His-YY1 full-length [3], the dissociation constant Kd amounted to 201 ± 17.9 nM.

B3: AAV P5 DNA (dsDNA)
DNA 1: AGGGTCTCCATTTTGAAGCG
DNA 2: CGCTTCAAAATGGAGACCCT
For the molecule B3, in the series with His-YY1 full-length [3] (blunt), the binding result is “binds”.

B4: (GGGGCC)8 RNA (ssRNA)
RNA: GGGGCCGGGGCCGGGGCCGGGGCCGGGGCCGGGGCCGGGGCCGGGGCC
As for B4, the dissociation constant Kd with His-YY1 full-length [3] turned out to be 46.8 ± 3.42 nM.

B5: FAM-(GGGGCC)8 RNA (ssRNA)
RNA: CGGGGCCGGGGCCGGGGCCGGGGCCGGGGCCGGGGCCGGGGCCGGGGCCG
Regarding B5, in the series with His-YY1 full-length [4], the Kd worked out at 45.3 ± 3.67 nM.

B6: FuzzyYY1-b DNA (dsDNA)
DNA 1: AGTCCTAAATGGGGGAGGAG
DNA 2: CTCCTCCCCCATTTAGGACT
In the case of B6, the Kd with His-YY1 full-length [3] (blunt) turned out to be 405 ± 45.9 nM.

B7: PP7 RNA (ssRNA)
RNA: UAAAGUAAGAUAAGGCAAGACAAGGUAAAACGGAACAGAACCGAAGGGAAGAGAAGCAAAGCGAAAGGAAAUAAACAAAAGAAAAAUUCGUAGAAUUCCG
With B7, the binding result in the series with His-YY1 full-length [3] was “binds”.
